# Literature values in publication PMC3376167.
# Molecular target: ARNT PAS-B (Homo sapiens) (UniProt P27540)
# Sequence (P27540 356-470): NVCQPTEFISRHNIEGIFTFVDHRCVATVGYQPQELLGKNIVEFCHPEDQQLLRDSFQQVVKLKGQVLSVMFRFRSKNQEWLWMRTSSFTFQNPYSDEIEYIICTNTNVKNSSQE
# Chain of HIF-2α PAS-B (Q99814 239-350): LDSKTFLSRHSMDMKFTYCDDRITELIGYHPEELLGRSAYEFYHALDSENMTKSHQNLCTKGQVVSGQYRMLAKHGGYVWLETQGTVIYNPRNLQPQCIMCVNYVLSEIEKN
substance,measurement,value
HIF-2α PAS-B (from UniProt Q99814),Kd,120 µM
